Data as given in patent US20030118612A1 (MAXYGEN, published 2003).

T1: human G-CSF receptor (human, UniProt Q99062 25-836)
T1 sequence (looked up): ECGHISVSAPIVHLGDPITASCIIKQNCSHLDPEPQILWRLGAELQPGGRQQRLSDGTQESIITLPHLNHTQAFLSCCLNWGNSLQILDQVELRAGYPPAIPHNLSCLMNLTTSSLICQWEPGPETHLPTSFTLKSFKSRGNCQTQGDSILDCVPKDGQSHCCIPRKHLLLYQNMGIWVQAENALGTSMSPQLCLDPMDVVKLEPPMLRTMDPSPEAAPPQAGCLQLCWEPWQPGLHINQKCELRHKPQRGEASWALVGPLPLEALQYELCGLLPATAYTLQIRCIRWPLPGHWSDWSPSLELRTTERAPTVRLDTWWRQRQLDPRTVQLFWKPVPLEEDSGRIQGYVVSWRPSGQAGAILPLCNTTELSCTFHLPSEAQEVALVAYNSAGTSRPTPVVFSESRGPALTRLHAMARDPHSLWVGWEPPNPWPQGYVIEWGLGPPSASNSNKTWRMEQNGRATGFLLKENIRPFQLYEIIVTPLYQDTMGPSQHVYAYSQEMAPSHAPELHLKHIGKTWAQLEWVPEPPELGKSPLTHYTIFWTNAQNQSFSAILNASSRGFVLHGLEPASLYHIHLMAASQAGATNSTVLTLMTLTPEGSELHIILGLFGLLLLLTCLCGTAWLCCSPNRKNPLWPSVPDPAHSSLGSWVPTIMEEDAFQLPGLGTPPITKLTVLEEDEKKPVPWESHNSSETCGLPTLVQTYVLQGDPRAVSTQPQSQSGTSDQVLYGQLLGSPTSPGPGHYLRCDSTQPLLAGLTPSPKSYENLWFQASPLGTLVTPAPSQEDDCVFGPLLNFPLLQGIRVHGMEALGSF


biological target: T1, human G-CSF receptor; assay: cell-based or functional assay

EC50 (% of hG-CSF) conjugated to SPA-PEG 5000	EC50 (% of hG-CSF) non-conjugated	Binder
0 % of hG-CSF	–	G-CSF variant K16/34/40R Q77 conjugated to SPA-PEG 5000 (ligand, SPA-PEG 5000 conjugated to the available PEGylation sites) TPLGPASSLPQSFLLRCLEQVRKIQGDGAALQERLCATYRLCHPEELVLLGHSLGIPWAPLSSCPSQALQLAGCLSKLHSGLFLYQGLLQALEGISPELGPTLDTLQLDVADFATTIWQQMEELGMAPALQPTQGAMPAFASAFQRRAGGVLVASHLQSFLEVSYRVLRHLAQP
–	10 % of hG-CSF	G-CSF variant K16/34/40R Q134K, non-conjugated (ligand) TPLGPASSLPQSFLLRCLEQVRKIQGDGAALQERLCATYRLCHPEELVLLGHSLGIPWAPLSSCPSQALQLAGCLSQLHSGLFLYQGLLQALEGISPELGPTLDTLQLDVADFATTIWQQMEELGMAPALQPTKGAMPAFASAFQRRAGGVLVASHLQSFLEVSYRVLRHLAQP
–	10 % of hG-CSF	G-CSF variant K16/34/40R S80K, non-conjugated (ligand) TPLGPASSLPQSFLLRCLEQVRKIQGDGAALQERLCATYRLCHPEELVLLGHSLGIPWAPLSSCPSQALQLAGCLSQLHKGLFLYQGLLQALEGISPELGPTLDTLQLDVADFATTIWQQMEELGMAPALQPTQGAMPAFASAFQRRAGGVLVASHLQSFLEVSYRVLRHLAQP
–	30 % of hG-CSF	G-CSF variant K16/34/40R Q90K, non-conjugated (ligand) TPLGPASSLPQSFLLRCLEQVRKIQGDGAALQERLCATYRLCHPEELVLLGHSLGIPWAPLSSCPSQALQLAGCLSQLHSGLFLYQGLLKALEGISPELGPTLDTLQLDVADFATTIWQQMEELGMAPALQPTQGAMPAFASAFQRRAGGVLVASHLQSFLEVSYRVLRHLAQP
–	30 % of hG-CSF	G-CSF variant K16/34/40R T105K, non-conjugated (ligand) TPLGPASSLPQSFLLRCLEQVRKIQGDGAALQERLCATYRLCHPEELVLLGHSLGIPWAPLSSCPSQALQLAGCLSQLHSGLFLYQGLLQALEGISPELGPTLDKLQLDVADFATTIWQQMEELGMAPALQPTQGAMPAFASAFQRRAGGVLVASHLQSFLEVSYRVLRHLAQP
0.2 % of hG-CSF	–	G-CSF variant K16/34/40R S80K conjugated to SPA-PEG 5000 (ligand, SPA-PEG 5000 conjugated to the available PEGylation sites) TPLGPASSLPQSFLLRCLEQVRKIQGDGAALQERLCATYRLCHPEELVLLGHSLGIPWAPLSSCPSQALQLAGCLSQLHKGLFLYQGLLQALEGISPELGPTLDTLQLDVADFATTIWQQMEELGMAPALQPTQGAMPAFASAFQRRAGGVLVASHLQSFLEVSYRVLRHLAQP
–	10 % of hG-CSF	G-CSF variant K16/34/40R D104K, non-conjugated (ligand) TPLGPASSLPQSFLLRCLEQVRKIQGDGAALQERLCATYRLCHPEELVLLGHSLGIPWAPLSSCPSQALQLAGCLSQLHSGLFLYQGLLQALEGISPELGPTLKTLQLDVADFATTIWQQMEELGMAPALQPTQGAMPAFASAFQRRAGGVLVASHLQSFLEVSYRVLRHLAQP
20 % of hG-CSF	–	G-CSF variant K16/34/40R Q90K conjugated to SPA-PEG 5000 (ligand, SPA-PEG 5000 conjugated to the available PEGylation sites) TPLGPASSLPQSFLLRCLEQVRKIQGDGAALQERLCATYRLCHPEELVLLGHSLGIPWAPLSSCPSQALQLAGCLSQLHSGLFLYQGLLKALEGISPELGPTLDTLQLDVADFATTIWQQMEELGMAPALQPTQGAMPAFASAFQRRAGGVLVASHLQSFLEVSYRVLRHLAQP
–	20 % of hG-CSF	G-CSF variant K16/34/40R S155K, non-conjugated (ligand) TPLGPASSLPQSFLLRCLEQVRKIQGDGAALQERLCATYRLCHPEELVLLGHSLGIPWAPLSSCPSQALQLAGCLSQLHSGLFLYQGLLQALEGISPELGPTLDTLQLDVADFATTIWQQMEELGMAPALQPTQGAMPAFASAFQRRAGGVLVAKHLQSFLEVSYRVLRHLAQP
0.9 % of hG-CSF	–	G-CSF variant K16/34/40R D104K conjugated to SPA-PEG 5000 (ligand, SPA-PEG 5000 conjugated to the available PEGylation sites) TPLGPASSLPQSFLLRCLEQVRKIQGDGAALQERLCATYRLCHPEELVLLGHSLGIPWAPLSSCPSQALQLAGCLSQLHSGLFLYQGLLQALEGISPELGPTLKTLQLDVADFATTIWQQMEELGMAPALQPTQGAMPAFASAFQRRAGGVLVASHLQSFLEVSYRVLRHLAQP
1 % of hG-CSF	–	G-CSF variant K16/34/40R R147K conjugated to SPA-PEG 5000 (ligand, SPA-PEG 5000 conjugated to the available PEGylation sites) TPLGPASSLPQSFLLRCLEQVRKIQGDGAALQERLCATYRLCHPEELVLLGHSLGIPWAPLSSCPSQALQLAGCLSQLHSGLFLYQGLLQALEGISPELGPTLDTLQLDVADFATTIWQQMEELGMAPALQPTQGAMPAFASAFQRKAGGVLVASHLQSFLEVSYRVLRHLAQP
–	30 % of hG-CSF	G-CSF variant K16/34/40R Q120K, non-conjugated (ligand) TPLGPASSLPQSFLLRCLEQVRKIQGDGAALQERLCATYRLCHPEELVLLGHSLGIPWAPLSSCPSQALQLAGCLSQLHSGLFLYQGLLQALEGISPELGPTLDTLQLDVADFATTIWQKMEELGMAPALQPTQGAMPAFASAFQRRAGGVLVASHLQSFLEVSYRVLRHLAQP
–	20 % of hG-CSF	G-CSF variant K16/34/40R R147K, non-conjugated (ligand) TPLGPASSLPQSFLLRCLEQVRKIQGDGAALQERLCATYRLCHPEELVLLGHSLGIPWAPLSSCPSQALQLAGCLSQLHSGLFLYQGLLQALEGISPELGPTLDTLQLDVADFATTIWQQMEELGMAPALQPTQGAMPAFASAFQRKAGGVLVASHLQSFLEVSYRVLRHLAQP
10 % of hG-CSF	–	G-CSF variant K16/34/40R T105K conjugated to SPA-PEG 5000 (ligand, SPA-PEG 5000 conjugated to the available PEGylation sites) TPLGPASSLPQSFLLRCLEQVRKIQGDGAALQERLCATYRLCHPEELVLLGHSLGIPWAPLSSCPSQALQLAGCLSQLHSGLFLYQGLLQALEGISPELGPTLDKLQLDVADFATTIWQQMEELGMAPALQPTQGAMPAFASAFQRRAGGVLVASHLQSFLEVSYRVLRHLAQP
–	20 % of hG-CSF	G-CSF variant K16/34/40R S142K, non-conjugated (ligand) TPLGPASSLPQSFLLRCLEQVRKIQGDGAALQERLCATYRLCHPEELVLLGHSLGIPWAPLSSCPSQALQLAGCLSQLHSGLFLYQGLLQALEGISPELGPTLDTLQLDVADFATTIWQQMEELGMAPALQPTQGAMPAFAKAFQRRAGGVLVASHLQSFLEVSYRVLRHLAQP
–	80 % of hG-CSF	G-CSF variant 16Q, non-conjugated (ligand) TPLGPASSLPQSFLLQCLEQVRKIQGDGAALQEKLCATYKLCHPEELVLLGHSLGIPWAPLSSCPSQALQLAGCLSQLHSGLFLYQGLLQALEGISPELGPTLDTLQLDVADFATTIWQQMEELGMAPALQPTQGAMPAFASAFQRRAGGVLVASHLQSFLEVSYRVLRHLAQP
20 % of hG-CSF	–	G-CSF variant K16/34/40R Q120K conjugated to SPA-PEG 5000 (ligand, SPA-PEG 5000 conjugated to the available PEGylation sites) TPLGPASSLPQSFLLRCLEQVRKIQGDGAALQERLCATYRLCHPEELVLLGHSLGIPWAPLSSCPSQALQLAGCLSQLHSGLFLYQGLLQALEGISPELGPTLDTLQLDVADFATTIWQKMEELGMAPALQPTQGAMPAFASAFQRRAGGVLVASHLQSFLEVSYRVLRHLAQP
0.2 % of hG-CSF	–	G-CSF variant K16/34/40R Q134K conjugated to SPA-PEG 5000 (ligand, SPA-PEG 5000 conjugated to the available PEGylation sites) TPLGPASSLPQSFLLRCLEQVRKIQGDGAALQERLCATYRLCHPEELVLLGHSLGIPWAPLSSCPSQALQLAGCLSQLHSGLFLYQGLLQALEGISPELGPTLDTLQLDVADFATTIWQQMEELGMAPALQPTKGAMPAFASAFQRRAGGVLVASHLQSFLEVSYRVLRHLAQP
–	30 % of hG-CSF	G-CSF variant K16/34/40R T133K, non-conjugated (ligand) TPLGPASSLPQSFLLRCLEQVRKIQGDGAALQERLCATYRLCHPEELVLLGHSLGIPWAPLSSCPSQALQLAGCLSQLHSGLFLYQGLLQALEGISPELGPTLDTLQLDVADFATTIWQQMEELGMAPALQPKQGAMPAFASAFQRRAGGVLVASHLQSFLEVSYRVLRHLAQP
1 % of hG-CSF	–	G-CSF variant K16/34/40R S155K conjugated to SPA-PEG 5000 (ligand, SPA-PEG 5000 conjugated to the available PEGylation sites) TPLGPASSLPQSFLLRCLEQVRKIQGDGAALQERLCATYRLCHPEELVLLGHSLGIPWAPLSSCPSQALQLAGCLSQLHSGLFLYQGLLQALEGISPELGPTLDTLQLDVADFATTIWQQMEELGMAPALQPTQGAMPAFASAFQRRAGGVLVAKHLQSFLEVSYRVLRHLAQP
1 % of hG-CSF	–	G-CSF variant 16R conjugated to SPA-PEG 5000 (ligand, SPA-PEG 5000 conjugated to the available PEGylation sites) TPLGPASSLPQSFLLRCLEQVRKIQGDGAALQEKLCATYKLCHPEELVLLGHSLGIPWAPLSSCPSQALQLAGCLSQLHSGLFLYQGLLQALEGISPELGPTLDTLQLDVADFATTIWQQMEELGMAPALQPTQGAMPAFASAFQRRAGGVLVASHLQSFLEVSYRVLRHLAQP
10 % of hG-CSF	–	G-CSF variant K16/34/40R T133K conjugated to SPA-PEG 5000 (ligand, SPA-PEG 5000 conjugated to the available PEGylation sites) TPLGPASSLPQSFLLRCLEQVRKIQGDGAALQERLCATYRLCHPEELVLLGHSLGIPWAPLSSCPSQALQLAGCLSQLHSGLFLYQGLLQALEGISPELGPTLDTLQLDVADFATTIWQQMEELGMAPALQPKQGAMPAFASAFQRRAGGVLVASHLQSFLEVSYRVLRHLAQP
7 % of hG-CSF	–	G-CSF variant K16/34/40R S142K conjugated to SPA-PEG 5000 (ligand, SPA-PEG 5000 conjugated to the available PEGylation sites) TPLGPASSLPQSFLLRCLEQVRKIQGDGAALQERLCATYRLCHPEELVLLGHSLGIPWAPLSSCPSQALQLAGCLSQLHSGLFLYQGLLQALEGISPELGPTLDTLQLDVADFATTIWQQMEELGMAPALQPTQGAMPAFAKAFQRRAGGVLVASHLQSFLEVSYRVLRHLAQP
